Data from patent US12564623B2, “Methods and compositions for treating cancer” (The University of Chicago, priority 2017, dated 2026).

Legend:
[1] = tested on: E0771 cancer cells; test: Abscopal effect, bilateral E0771 tumors; assay type: in vivo, C57BL/6 mice
Description: (FIG. 19A) E0771 cancer cells were injected into left (0.5 million cells) and right (0.4 million cells) mammary fat pad of C57BL/6 mice. Once tumors on the left side reached ˜100 mm^3, ELANE (11.6 μg) or PMSF-inactivated ELANE (PMSF-ELANE) were injected intra-tumorally into the left tumor once/day for 5 days. n=10 mice/group. No action was performed on the right side of the tumor (abscopal side). Tumor volume on both sides were measured by calipers. (FIG. 19B) To eliminate the possibility that the abscopal effect was due to spillover of ELANE from the left to the right tumor, E0771 cancer cells were injected only into the left mammary fat pad of C57BL/6 mice, and mice were treated daily with ELANE (11.6 μg) or PMSF-ELANE into the right mammary fat pad. Tumor volume was measured by calipers.

[2] = tested on: E0771, B16F10, or LLC1 cancer cells; test: Tumoral immune cell analysis by flow cytometry; assay type: in vivo, C57BL/6 mice; conditions: 11.6 μg intratumorally once/day for 5 days, day 6
Description: E0771, B16F10, or LLC1 cancer cells were injected into C57BL/6 mice. Once tumors reached ˜100 mm^3, ELANE (11.6 μg) or PMSF-ELANE (11.6 μg) were delivered intratumorally once/day for 5 days. Tumors were isolated on day 6 and digested for immune cell analysis by flow cytometry. CD45+ cells are the total immune cells; macrophages (Mac) are defined as CD45+CD11b+CD11c^lowMHCII^low, neutrophils (Neu) are defined as CD45+CD11b+Ly6G+, dendritic cells (DC) are defined as CD45+CD11b+CD11c^highMHCII^high, B cells (b) are defined as CD45+B220+, NK cells (NK) are defined as CD45+NK1.1+CD16+, CD4+ T cells (CD4T) are defined as CD3+CD4+CD8−, CD8+ T cells (CD8T) are defined as CD3+CD8+CD4−, CD8 effector T cells (CD8Teff) are defined as CD3+CD8+CD4−CD62L−CD44+. *, p<0.05, Student's t-test. (FIG. 17)

[3] = Side effects in healthy non-tumor-bearing mice; assay type: in vivo, C57BL/6 mice; conditions: mammary fat pad, once a day for 5 consecutive days
Description: Human serum albumin (HSA; 11.6 μg)) or ELANE (11.6 μg) was injected into the mammary fat pad of healthy non-tumor-bearing C57BL/6 mice once a day for 5 consecutive days, and side effects were monitored. (a) Immunohistochemistry staining for apoptosis markers (TUNEL, cleaved CASP3 (c-CASP3), cleaved PARP (c-PARP)) 2 days after the final injection. (b) Delta body weight. (c) Spleen weight. (c) Blood ALT activity levels (a marker of liver function).
4 μM human albumin (Ctrl) or 4 μM ELANE was injected into the mammary fat pad of healthy non-tumor-bearing C57BL/6 mice once a day for 5 consecutive days, and side effects were monitored. Body weight, spleen weight, and blood ALT activity levels (a marker of liver function). Immunohistochemistry staining for apoptosis markers (cleaved CASP3 (c-CASP3), cleaved PARP (c-PARP)) 2 days after the final injection. Quantification of CD8+ effector cytotoxic T-cells (defined as CD3^+CD8^+CD62L^LOCD44^HI) in the blood 2 days after the final injection.

[4] = tested on: CD95; test: Recombinant CD95 degradation, SDS-PAGE and coomassie blue; assay type: biochemical, human; conditions: ELANE 0.05 μg, 1 μg recombinant protein, 2 hrs at 37° C.
Description: ELANE lowers CD95 levels in cancer cells and reduced CD95 levels are associated with apoptosis. (FIG. 8A) Recombinant proteins (1 μg) corresponding to full length CD95 (FL-CD95), N-terminal domain of CD95 (amino acids 1-173; N-CD95), or C-terminal domain of CD95 (amino acids 157-320; C-CD95) were inbuated with ELANE (0.05 μg) or vehicle (Veh) for 2 hrs at 37° C. Degradation was assessed by SDS-PAGE followed by coomassie blue staining. […] (FIG. 8C) Cancer cells were treated with ELANE (50 nM) for 1 hr, fixed in 10% formalin, and stained with N- or C-terminal specific anti-CD95 antibodies (green). Hoechst 33342 solution was used for nuclear staining (blue). Images were taken under 40×.
ELANE selectively cleaves the C-terminal domain of CD95. […] Degradation was assessed by SDS-PAGE followed by staining with coomassie blue. […] Mel888 cancer cells were treated with ELANE (50 nM) for various times, and CD95 degradation was assessed by western blot analysis with a C-terminal specific anti-CD95 antibody.
Other serine proteases cleave the C-terminal domain of CD95, and the ability to cleave the C-terminal domain is associated with cancer cell killing. […] Degradation was assessed by SDS-PAGE followed by coomassie blue staining. […] Cell viability was assessed by Calcein AM staining.

B1: neutrophil elastase (protein, listed as Homo sapiens)
chain: MTLGRRLACLFLACVLPALLLGGTALASEIVGGRRARPHAWPFMVSLQLRGGHFCGATLIAPNFVMSAAHCVANVNVRAVRVVLGAHNLSRREPTRQVFAVQRIFENGYDPVNLLNDIVILQLNGSATINANVQVAQLPAQGRRLGNGVQCLAMGWGLLGRNRGIASVLQELNVTVVTSLCRRSNVCTLVRGRQAGVCFGDSGSPLVCNGLIHGIASFVRGGCASGLYPDAFAPVAQFVNWIDSIIQRSEDNPCPHPRDPDPASRTH
notes: purified native ELANE
- tumor growth after injection into contralateral non-tumor bearing mammary fat pad ([1]; 11.6 μg daily): does not lower tumor growth
- abscopal effect ([1]; 11.6 μg into left tumor once/day for 5 days): induces an abscopal effect
- tumoral immune cells [2]: increases tumoral immune cells
- side effects (body weight, spleen weight, blood ALT, apoptosis markers) [3]: does not produce evident side-effects
- cleavage of CD95 domains [4]: preferentially cleaves the C-terminal domain of CD95
